Here are results for 6 sequences from the supplement of paper PMC5998384.

The subject of series [1] is HeLa Kyoto. Briefly: solubility change mitosis vs G1/S (difference of NP-40 vs SDS log2 ratios) (log2 ratio difference); higher = more soluble in mitosis.
The subject of series [2] is HeLa Kyoto. Nature of the series: thermal stability score vs G1/S (z-score of summed log2 fold changes over temperatures); higher = more thermally stable than in G1/S.
Series [3] has as its system HeLa Kyoto. Nature of the series: solubility in G1/S (NP-40 vs SDS abundance) (log2 ratio); higher = more soluble. The note with it: cell cycle stage: G1/S.
Series [4] concerns HeLa Kyoto. Nature of the series: melting temperature (median over replicates), in situ; higher = more thermally stable.
[5] abbreviates: cell cycle stage: early G1 (4.5 h after nocodazole release).
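Wherever melting temperature (median over replicates), in situ is given: HeLa Kyoto cells synchronized by double thymidine or nocodazole block, proteins quantified by TMT10plex mass spectrometry, three independent biological replicates.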
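Wherever solubility change mitosis vs G1/S (difference of NP-40 vs SDS log2 ratios) is given: synchronized HeLa Kyoto cells (double thymidine block for G1/S, nocodazole release for mitosis), protein amounts in NP-40 versus SDS lysates quantified by mass spectrometry, three biological replicates.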
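Wherever solubility in G1/S (NP-40 vs SDS abundance) is given: HeLa Kyoto cells arrested at G1/S by double thymidine block, proteins quantified by TMT10plex mass spectrometry in mild NP-40 versus SDS extracts, three biological replicates.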
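Wherever thermal stability score vs G1/S (z-score of summed log2 fold changes over temperatures) is given: synchronized HeLa Kyoto cells, proteins quantified by TMT10plex mass spectrometry, three biological replicates, mitosis taken 0.5 h after nocodazole release, G1/S directly after double thymidine block.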

Consider “MAEEQGRERDSVPKPSVLFLHPDLGVGGAERLVLDAALALQARGCSVKIWTAHYDPGHCFAESRELPVRCAGDWLPRGLGWGGRGAAVCAYVRMVFLALYVLFLADEEFDVVVCDQVSACIPVFRLARRRKKILFYCHFPDLLLTKRDSFLKRLYRAPIDWIEEYTTGMADCILVNSQFTAAVFKETFKSLSHIDPDVLYPSLNVTSFDSVVPEKLDDLVPKGKKFLLLSINRYERKKNLTLALEALVQLRGRLTSQDWERVHLIVAGGYDERVLENVEHYQELKKMVQQSDLGQYVTFLRSFSDKQKISLLHSCTCVLYTPSNEHFGIVPLEAMYMQCPVIAVNSGGPLESIDHSVTGFLCEPDPVHFSEAIEKFIREPSLKATMGLAGRARVKEKFSPEAFTEQLYRYVTKLLV [ALG2]”, for which the “solubility change mitosis (log2)” value in the series on HeLa Kyoto [1] is -0.229. The thermal stability score in the series with HeLa Kyoto [2] (setting [5]) came to 0.227; with HeLa Kyoto [2] (cell cycle stage: mitosis) it was 0.342. Moreover, the “solubility in G1/S (log2)” value with HeLa Kyoto [3] was -0.0813. Further, the melting temperature was 51 °C in the series on HeLa Kyoto [4] (cell cycle stage: G1/S) and 51.3 °C in the series on HeLa Kyoto [4] (cell cycle stage: mitosis).
Consider “MAEFLDDQETRLCDNCKKEIPVFNFTIHEIHCQRNIGMCPTCKEPFPKSDMETHMAAEHCQVTCKCNKKLEKRLLKKHEETECPLRLAVCQHCDLELSILKLKEHEDYCGARTELCGNCGRNVLVKDLKTHPEVCGREGEEKRNEVAIPPNAYDESWGQDGIWIASQLLRQIEALDPPMRLPRRPLRAFESDVFHNRTTNQRNITAQVSIQNNLFEEQERQERNRGQQPPKEGGEESANLDFMLALSLQNEGQASSVAEQDFWRAVCEADQSHGGPRSLSDIKGAADEIMLPCEFCEELYPEELLIDHQTSCNPSRALPSLNTGSSSPRGVEEPDVIFQNFLQQAASNQLDSLMGLSNSHPVEESIIIPCEFCGVQLEEEVLFHHQDQCDQRPATATNHVTEGIPRLDSQPQETSPELPRRRVRHQGDLSSGYLDDTKQETANGPTSCLPPSRPINNMTATYNQLSRSTSGPRPGCQPSSPCVPKLSNSDSQDIQGRNRDSQNGAIAPGHVSVIRPPQNLYPENIVPSFSPGPSGRYGASGRSEGGRNSRVTPAAANYRSRTAKAKPSKQQGAGDAEEEEEE [TRAFD1]”, for which the “solubility change mitosis (log2)” value in the series on HeLa Kyoto [1] was -0.0897. In addition, the thermal stability score with HeLa Kyoto [2] (setting [5]) was -1.71; in the series on HeLa Kyoto [2] (cell cycle stage: mitosis), -2.27. Further, the “solubility in G1/S (log2)” value with HeLa Kyoto [3] was determined as 0.132. The melting temperature in the series with HeLa Kyoto [4] (cell cycle stage: G1/S) is 53.8 °C; with HeLa Kyoto [4] (cell cycle stage: mitosis) it was 53.9 °C.
Consider “MAEGNHRKKPLKVLESLGKDFLTGVLDNLVEQNVLNWKEEEKKKYYDAKTEDKVRVMADSMQEKQRMAGQMLLQTFFNIDQISPNKKAHPNMEAGPPESGESTDALKLCPHEEFLRLCKERAEEIYPIKERNNRTRLALIICNTEFDHLPPRNGADFDITGMKELLEGLDYSVDVEENLTARDMESALRAFATRPEHKSSDSTFLVLMSHGILEGICGTVHDEKKPDVLLYDTIFQIFNNRNCLSLKDKPKVIIVQACRGANRGELWVRDSPASLEVASSQSSENLEEDAVYKTHVEKDFIAFCSSTPHNVSWRDSTMGSIFITQLITCFQKYSWCCHLEEVFRKVQQSFETPRAKAQMPTIERLSMTRYFYLFPGN [CASP4]”, for which the “solubility change mitosis (log2)” value in the series with HeLa Kyoto [1] is -0.0831. Further, the values for the thermal stability score with HeLa Kyoto [2] (setting [5]) and with HeLa Kyoto [2] (cell cycle stage: mitosis) were 0.457 and 0.45, respectively. Further, the “solubility in G1/S (log2)” value with HeLa Kyoto [3] is 0.0521. The sequence further showed a melting temperature in the series with HeLa Kyoto [4] (cell cycle stage: mitosis) of 50.5 °C.
As for “MAELDPFGAPAGAPGGPALGNGVAGAGEEDPAAAFLAQQESEIAGIENDEAFAILDGGAPGPQPHGEPPGGPDAVDGVMNGEYYQESNGPTDSYAAISQVDRLQSEPESIRKWREEQMERLEALDANSRKQEAEWKEKAIKELEEWYARQDEQLQKTKANNRVADEAFYKQPFADVIGYVTNINHPCYSLEQAAEEAFVNDIDESSPGTEWERVARLCDFNPKSSKQAKDVSRMRSVLISLKQAPLVH [CLTA]”, in the series with HeLa Kyoto [1], the “solubility change mitosis (log2)” value was found to be 0.362. Also, the thermal stability score is -6.01 in the series on HeLa Kyoto [2] (setting [5]) and -4.14 in the series with HeLa Kyoto [2] (cell cycle stage: mitosis). Also, the “solubility in G1/S (log2)” value in the series on HeLa Kyoto [3] was 0.31. The melting temperature in the series with HeLa Kyoto [4] (cell cycle stage: G1/S) was found to be 54.7 °C.
“MAELSEEALLSVLPTIRVPKAGDRVHKDECAFSFDTPESEGGLYICMNTFLGFGKQYVERHFNKTGQRVYLHLRRTRRPKEEDPATGTGDPPRKKPTRLAIGVEGGFDLSEEKFELDEDVKIVILPDYLEIARDGLGGLPDIVRDRVTSAVEALLSADSASRKQEVQAWDGEVRQVSKHAFSLKQLDNPARIPPCGWKCSKCDMRENLWLNLTDGSILCGRRYFDGSGGNNHAVEHYRETGYPLAVKLGTITPDGADVYSYDEDDMVLDPSLAEHLSHFGIDMLKMQKTDKTMTELEIDMNQRIGEWELIQESGVPLKPLFGPGYTGIRNLGNSCYLNSVVQVLFSIPDFQRKYVDKLEKIFQNAPTDPTQDFSTQVAKLGHGLLSGEYSKPVPESGDGERVPEQKEVQDGIAPRMFKALIGKGHPEFSTNRQQDAQEFFLHLINMVERNCRSSENPNEVFRFLVEEKIKCLATEKVKYTQRVDYIMQLPVPMDAALNKEELLEYEEKKRQAEEEKMALPELVRAQVPFSSCLEAYGAPEQVDDFWSTALQAKSVAVKTTRFASFPDYLVIQIKKFTFGLDWVPKKLDVSIEMPEELDISQLRGTGLQPGEEELPDIAPPLVTPDEPKGSLGFYGNEDEDSFCSPHFSSPTSPMLDESVIIQLVEMGFPMDACRKAVYYTGNSGAEAAMNWVMSHMDDPDFANPLILPGSSGPGSTSAAADPPPEDCVTTIVSMGFSRDQALKALRATNNSLERAVDWIFSHIDDLDAEAAMDISEGRSAADSISESVPVGPKVRDGPGKYQLFAFISHMGTSTMCGHYVCHIKKEGRWVIYNDQKVCASEKPPKDLGYIYFYQRVAS [USP5]”: the “solubility change mitosis (log2)” value in the series with HeLa Kyoto [1] is -0.139. The thermal stability score in the series with HeLa Kyoto [2] (setting [5]) was 0.203; with HeLa Kyoto [2] (cell cycle stage: mitosis), 0.183. For the same sequence, the “solubility in G1/S (log2)” value in the series on HeLa Kyoto [3] is 0.218. In addition, the melting temperature in the series on HeLa Kyoto [4] (cell cycle stage: G1/S) came out at 52 °C; with HeLa Kyoto [4] (cell cycle stage: mitosis) it was 51.9 °C.
Regarding “MAELVQGQSAPVGMKAEGFVDALHRVRQIAAKIDSIPHLNNSTPLVDPSVYGYGVQKRPLDDGVGNQLGALVHQRTVITEEFKVPDKMVGFIIGRGGEQISRIQAESGCKIQIASESSGIPERPCVLTGTPESIEQAKRLLGQIVDRCRNGPGFHNDIDSNSTIQEILIPASKVGLVIGRGGETIKQLQERTGVKMVMIQDGPLPTGADKPLRITGDAFKVQQAREMVLEIIREKDQADFRGVRGDFNSRMGGGSIEVSVPRFAVGIVIGRNGEMIKKIQNDAGVRIQFKPDDGISPERAAQVMGPPDRCQHAAHIISELILTAQERDGFGGLAAARGRGRGRGDWSVGAPGGVQEITYTVPADKCGLVIGKGGENIKSINQQSGAHVELQRNPPPNSDPNLRRFTIRGVPQQIEVARQLIDEKVGGTNLGAPGAFGQSPFSQPPAPPHQNTFPPRSSGCFPNMAAKVNGNPHSTPVSGPPAFLTQGWGSTYQAWQQPTQQVPSQQSQPQSSQPNYSKAWEDYYKKQSHAASAAPQASSPPDYTMAWAEYYRQQVAFYGQTLGQAQAHSQEQ [FUBP3]”, the “solubility change mitosis (log2)” value with HeLa Kyoto [1] is -0.0288. Moreover, the thermal stability score in the series with HeLa Kyoto [2] (setting [5]) turned out to be 0.0807; in the series on HeLa Kyoto [2] (cell cycle stage: mitosis), 1.05. The “solubility in G1/S (log2)” value in the series on HeLa Kyoto [3] was found to be 0.337. Further, the melting temperature in the series with HeLa Kyoto [4] (cell cycle stage: G1/S) is 48.7 °C; in the series with HeLa Kyoto [4] (cell cycle stage: mitosis), 49.5 °C.
